# Measured values reported in article PMC9809158 (Nature structural & molecular biology, 2022).
# Several values for one entry are separate records, joined by “and”; a condition that tells them apart may be missing. Equal entries are not always repeated. Where two headings read alike, the source gives them in different places.
# T1: full-length NaVSp1 (from His-MBP-NaVSp1), reconstituted in lipid nanodiscs or amphipol A8-35 (Silicibacter pomeroyi)
# T1 chain: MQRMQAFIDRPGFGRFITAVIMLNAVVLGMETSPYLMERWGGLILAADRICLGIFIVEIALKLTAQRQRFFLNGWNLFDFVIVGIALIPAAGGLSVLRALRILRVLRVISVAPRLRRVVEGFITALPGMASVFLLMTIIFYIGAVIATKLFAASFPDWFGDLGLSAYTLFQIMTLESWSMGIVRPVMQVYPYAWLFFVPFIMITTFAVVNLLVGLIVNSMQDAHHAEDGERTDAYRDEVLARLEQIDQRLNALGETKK
# B1: sFab SAT09 (synthetic Fab from phage display, selected on NaVAe1/Sp1CTD in nanodiscs) (Fab, V domains shown)
# VH: EVQLVESGGGLVQPGGSLRLSCAASGFNFSSSSIHWVRQAPGKGLEWVASISSSSGSTSYADSVKGRFTISADTSKNTAYLQMNSLRAEDTAVYYCARTYGWYYSWWWAFDYWGQGTLVTVSS
# VL: DIQMTQSPSSLSASVGDRVTITCRASQSVSSAVAWYQQKPGKAPKLLIYSASSLYSGVPSRFSGSRSGTDFTLTISSLQPEDFATYYCQQGDPRLVTFGQGTKVEIK
# Assays:
# [1] = target: full-length NaVSp1 (from His-MBP-NaVSp1), reconstituted in lipid nanodiscs or amphipol A8-35 (Silicibacter pomeroyi); experiment: SEC-MALS
# [2] = target: NaVAb1p (Alcanivorax borkumensis NaVAb1 'pore only' protein), crystallised from bicelles (Alcanivorax borkumensis); experiment: crystal structure
# [3] = target: T1, full-length NaVSp1 (from …); experiment: SEC-MALS
# [4] = target: full-length NaVSp1 with C-terminal GFP (Silicibacter (Ruegeria) pomeroyi, entry …, UniProt F7IVA8); experiment: fluorescence-detection size-exclusion chromatography
# [5] = target: full-length NaVAe1 with C-terminal GFP (Alkalilimnicola ehrlichii, entry strain …, UniProt Q0ABW0); experiment: as above
molecule,measurement,setting,value
"full-length NaVSp1 (from His-MBP-NaVSp1), reconstituted in lipid nanodiscs or amphipol A8-35 (natural protein)",stoichiometry N,[1],4 and 8
"NaVAb1p (Alcanivorax borkumensis NaVAb1 'pore only' protein), crystallised from bicelles (domain or fragment)",stoichiometry N,[2],4
B1,stoichiometry N,[3],2 SAT09 sFabs to one channel
same,binding result,[4],binds
same,binding result,[5],binds
